Like-named read-outs stand apart in the source and are kept apart here.
How the values were obtained:
Experiment in all cases: cell-based or functional assay
[1] = target: T1, human IL-6 receptor alpha (hIL-6Rα) (human, UniProt P08887 20-358, limits assumed)
T1 sequence (looked up): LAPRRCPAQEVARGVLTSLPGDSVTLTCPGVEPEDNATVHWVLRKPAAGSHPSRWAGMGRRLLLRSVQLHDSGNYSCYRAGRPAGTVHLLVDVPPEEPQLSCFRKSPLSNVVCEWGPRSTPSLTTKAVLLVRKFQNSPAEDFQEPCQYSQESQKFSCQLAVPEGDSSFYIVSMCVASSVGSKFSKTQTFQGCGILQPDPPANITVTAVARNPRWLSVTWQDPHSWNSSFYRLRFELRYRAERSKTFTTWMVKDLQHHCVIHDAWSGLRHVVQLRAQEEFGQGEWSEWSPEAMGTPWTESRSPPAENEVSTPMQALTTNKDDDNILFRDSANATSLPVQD

[2] = target: T2, cell surface IL-6 receptor on TF-1 cells (UniProt P08887 20-468, limits assumed)
T2 sequence (looked up): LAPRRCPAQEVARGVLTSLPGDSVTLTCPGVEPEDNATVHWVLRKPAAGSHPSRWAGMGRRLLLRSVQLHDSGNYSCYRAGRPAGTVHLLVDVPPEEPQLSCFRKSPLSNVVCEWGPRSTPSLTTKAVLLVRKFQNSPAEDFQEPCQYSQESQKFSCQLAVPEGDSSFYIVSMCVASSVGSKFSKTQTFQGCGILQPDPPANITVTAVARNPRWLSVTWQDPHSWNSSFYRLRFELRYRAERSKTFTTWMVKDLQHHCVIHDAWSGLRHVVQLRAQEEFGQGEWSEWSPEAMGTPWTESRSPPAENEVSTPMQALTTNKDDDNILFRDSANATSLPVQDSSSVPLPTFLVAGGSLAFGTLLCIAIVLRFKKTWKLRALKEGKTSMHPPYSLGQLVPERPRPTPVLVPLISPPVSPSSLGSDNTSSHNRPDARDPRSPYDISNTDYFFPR

[3] = target: T2, cell surface IL-6 receptor on TF-1 cells; remark: listed apart in the source

IC50, inhibition of IL-6 trans-signaling dependent MCP-1 secretion by HUVECs [1]: ~5000 pM
IC50 blocking the IL-6 dependent growth of TF-1 cells [2]: 300 pM
IC50 blocking the IL-6 dependent growth of TF-1 cells [3]: 410 pM
B1: tocilizumab (antibody, V domains shown)
VH: QVQLQESGPGLVRPSQTLSLTCTVSGYSITSDHAWSWVRQPPGRGLEWIGYISYSGITTYNPSLKSRVTMLRDTSKNQFSLRLSSVTAADTAVYYCARSLARTTAMDYWGQGSLVTVSS
VL: DIQMTQSPSSLSASVGDRVTITCRASQDISSYLNWYQQKPGKAPKLLIYYTSRLHSGVPSRFSGSGSGTDFTFTISSLQPEDIATYYCQQGNTLPYTFGQGTKVEIKR
